Source: patent publication US20100261660A1 (published 2010)
Substitutions are numbered along the chain they refer to. One block for each binder: values may come before it.

Tests used:
[1] = target: T1, Soluble CD28-Ig (extracellular domain of human CD28 fused to the Fc portion of human IgG1) (human, UniProt P10747 19-152, biotin-conjugated (NHS-biotin) in the FACS binding assays); experiment: competitive FACS on transfected cells, biotin-sCD28-Ig with FITC-sCTLA-4-Ig; grade 0-2 of CD28/CTLA-4 ratio vs WT hB7-1
T1 construct: extracellular domain; bought from R&D Systems; also called sCD28-Ig; CD28-Ig Fc; not shown: Fc portion of human IgG1

[2] = target: CD28 receptor on human T cells (human, UniProt P10747 19-220); experiment: cell-based or functional assay
[3] = target: T1, Soluble CD28-Ig (extracellular domain …); experiment: binding assay, data not shown
[4] = target: T2, Soluble CTLA-4-Ig (extracellular domain of human CTLA-4 fused to the Fc portion of human IgG1) (human, UniProt P16410 36-161, FITC-conjugated in the FACS binding assays); experiment: binding assay, data not shown
T2 construct: extracellular domain; bought from R&D Systems; also called sCTLA-4-Ig; CTLA-4-Ig Fc; not shown: Fc portion of human IgG1

[5] = target: T1, Soluble CD28-Ig (extracellular domain …); experiment: two-color FACS of transfected 293 cells
Description: (§1) The labeled cells were subsequently handled at 4° C., washed twice with DMEM/10% FCS and incubated with 0.1 μg/ml Streptavidin-phycoerythrin (PE) (Pharmingen, San Diego, Calif.) in 100 μl for 15 min. Biotin binds the fluorescence marker Streptavidin-PE. (R-PE has an excitation maximum of 565 nanometers (nm) and an emission maximum of 578 nm. B-PE has excitation and emission maxima of 545 nm and 578 nm, respectively. FITC has excitation and emission maxima of 494 and 519, respectively.) The cells were again washed twice and resuspended in 200 μl medium with 5 μg/ml propidium iodide (PI). The cells were then analyzed using a FACSCalibur flow cytometer and CellQuest software (BDIS, San Jose, Calif.). Cell sorting was performed by flow-cytometry based cell sorting screening methods using FACS (Fluorescence-Activated Cell Sorting) Vantage SE cell sorter (BDIS) (Becton Dickinson; San Jose, Calif.). The staining concentration was determined for each labeled protein to provide a maximal Mean Fluorescence Intensity (MFI) and minimal background signal (e.g., optimum staining concentration was the concentration per 10⁶ cells).

[6] = target: T2, Soluble CTLA-4-Ig (extracellular domain …); experiment: two-color FACS of transfected 293 cells
Description: as §1

[7] = target: T1, Soluble CD28-Ig (extracellular domain …); experiment: flow cytometry of transiently transfected 293 cells
[8] = target: T2, Soluble CTLA-4-Ig (extracellular domain …); experiment: flow cytometry of transfected cells, at least two experiments

T2 sequence (P16410 36-161): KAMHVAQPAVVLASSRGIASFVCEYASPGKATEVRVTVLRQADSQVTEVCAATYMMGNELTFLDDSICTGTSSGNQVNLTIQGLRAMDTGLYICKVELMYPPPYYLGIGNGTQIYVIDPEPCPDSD

- Binding Score [1]: 1
B1: Round 2 CD28F10-2 (ligand)
chain: ITPKSVTKRVKETVMLSCDYNTSTEELTSLRIYWQKDSKMVLAILPGKVQVWPEYKNRTITDMNDNPRIVILALRLSDSGTYTCVIQKPDLKGAYKLEHLTSVRLMIRADFPVPSITDIGHPAPNVKRIRCSASGDFPEPRLAWMEDGEELNAVNTTVDQDLDTELYSVSSELDFNVTNNHSIVCLIKYGELSVSQIFPWSKPKQEPPIDQLPFWVIIPVSGALVLTAVVLYCLACRHVARWKRTRRNEETVGTERLSPIYLGSAQSSG

- Binding Score [1]: 1
B2: Round 2 CD28F12-5* (ligand)
chain: B1 chain with T101A

- Binding Score [1]: 1
B3: Round 2 CD28G1-9 (ligand)
chain: B1 chain with D90V, D136G

- Binding Score [1]: 1
B4: Round 2 CD28H6-6 (ligand)
chain: ITPKSVTKRVKETVMLSCDYSTSTEELTSLRIYWQKDSKMVLAILPGKVQVWPEYKNRTITDMNDNPRIVILALRLSDSGTYTCVIQKPVLKGAYKLEHLASVRLMIRADFPVPTINDLGNPSPNIRRLICSGFPRPHLYWLENGEELNATNTTVSQDPGTELYMISSELDFNVTNNHSIVCLIKYGELSVSQIFPWSKPKQEPPIDQLPFWVIIPVSGALVLTAVVLYCLACRHVARWKRTRRNEETVGTERLSPIYLGSAQSSG

- T cell proliferation (3H-thymidine incorporation), irradiated 293 transfectants with purified human T cells and anti-CD3 mAbs [2]: ~10 fold
- Binding Score [1]: 2
B5: Round 2 CD28BP-15 (ligand)
chain: ITPKSVTKRVKETVMLSCDYNTSTEELTSLRIYWQKDSKMVLAILPGKVQVWPEYKNRTITDMNDNPRIVILALRPSDSGTYTCVIQKPVLKGAYKLEHLASVRLMIRADFPVPTINDLGNPSPNIRRLICSTSGGFPRPHLYWLENGEELNATNTTVSQDPGTELYMISSELDFNVTNNHSIVCLIKYGELSVSQIFPWSKPKQEPPIDQLPFWVIIPVSGALVLTAVVLYCLACRHVARWKRTRRNEETVGTERLSPIYLGSAQSSG
notes: also called clone R2 CD28BP-15; clone 15

- Binding Score [1]: 0
B6: Round 2 CD28F11-8 (ligand)
chain: ITPKSVTKRVKETVMLSCDYNTSTEELTSLRIYWQKDSKMVLAILPGKVQVWPEYKNRTITDMNDNPRIVILALRLSDSGTYTCVIQKPVLKGAYKLEHLTSVRLMIRADFPVPTINDLGNPSPNIRRLICSTSGGFPRPHLYWLENGEELNATNTTLSQDPETKLYMISSELDFNMTSNLCLVKYGDLTVSQTFYWQESKPTPSANQHLTWTIIIPVSAFGISVIIAVILTCLTCRNAAIRRQRRENEVEMQSCSQSP

- Binding Score [1]: 0
B7: Round 2 CD28A2-5 (ligand)
chain: ITPKSVTKRVKETVMLSCDYNTSTEELTSLRIYWQKDSKMVLAILPGKVQVWPEYKNRTITDMNDNPRIVILALRLSDSGTYTCVIQKPDLKGAYKLEHLASVRLMIRADFPVPSITDIGHPAPNVKRIRCSASGGFPEPRLAWMEDGEELNAVNTTVDQDLDTELYSVSSELDFNMTSNHSFLCLVKYGDLTVSQTFYWQESKPTPSANQHLTWTIIIPVSAFGISVIIAVILTCLTCRNAAIRRQRRENEGKCKVLSVSIGTKLKFNR

- binding result [3]: binds
- binding result [4]: binds
B8: Baboon B7-1 (ligand)
chain: VIHVTKEVKEVATLSCGHNVSVEELAQTRIYWQKEKKMVLTMMSGDMNIWPEYKNRTIFDITNNLSIVILALRPSDEGTYECVVLKYEKDAFKREHLAEVMLSVKADFPTPSITDFEIPPSNIRRIICSTSGGFPEPHLFWLENGEELNAINTTVSQDPGTELYTVSSKLDFNMTTNHSFVCLIKYGHLRVNQTFNWNTPKQEHFPDNLLPSWAITLISVNGIFVICCLTYCFAPRCRERRRNETLRRESVRPV

- binding result [3]: binds
- binding result [4]: binds
B9: Orangutan B7-1 (ligand)
chain: VIHVTKEVKEVATLSCGHNVSVEELAQTRIYWQKEKKMVLTMMSGDMNIWPEYKNRTIFDITNNLSIVILALRPSDEGTYECVVLKYEKDAFKREHLAEVTLSVKADFPTPSISDFEIPTSNIRRMICSTSGGFPEPHLSWLENGEELNAISTTVSQDPETELYAVSSKLDFNMTTNHSFMCLIKYGHLRVNQTFNWNTPKQEHFPDNLLPSWAITLISVNGIFVICCLTYCFAPRCRERRSNERLRRESVRPV

- binding result [5]: binds
- binding result [6]: binds
B10: Rhesus B7-1 (ligand)
chain: B8 chain with H138R, F140S, N152S, G160E, V181M, Y231H
notes: also called rhesus monkey B7-1

- Binding Score [1]: 0
B11: Round 2 CD28B4-5* (ligand)
chain: SGITPKSVTKRVKETVMLSCDYNTSTEELTSLRIYWQKDSKMVLAILPGKVQVWPEYKNRTITDMNDNPRIVILALRLSDKGTYTCVVQKPDLKGAYKLEHLASVRLMIRADFPVPSITDIGHPAPNVKRIRCSASGGFPEPRLAWMEDGEELNAVNTTVDQDLDTELYSVSSELDFNVTNNHSIVCLIKYGELSVSQIFPWSKPKQEPPIDQLPFWVIIPVSGALVLTAVVLYCLACRHVARWKRTRRNEETVGTERLSPIYLGSAQSSG

- binding result [7]: binds
B12: CD28BP-FLAG (CD28BP-15 with a FLAG-tag) (ligand)
chain: DYKDDDDKITPKSVTKRVKETVMLSCDYNTSTEELTSLRIYWQKDSKMVLAILPGKVQVWPEYKNRTITDMNDNPRIVILALRPSDSGTYTCVIQKPVLKGAYKLEHLASVRLMIRADFPVPTINDLGNPSPNIRRLICSTSGGFPRPHLYWLENGEELNATNTTVSQDPGTELYMISSELDFNVTNNHSIVCLIKYGELSVSQIFPWSKPKQEPPIDQLPFWVIIPVSGALVLTAVVLYCLACRHVARWKRTRRNEETVGTERLSPIYLGSAQSSG
notes: also called FLAG-construct of CD28BP-15

- binding result [8]: binds
- Binding Score [1]: 1
B13: Round 1 CD28BP-84 (ligand)
chain: GISQVTKSVKEMAALSCDYNISIDELARMRIYWQKDQQMVLSIISGQVEVWPEYKNRTFPDIINNLSLMILALRLSDKGTYTCVVQKNENGSFRREHLTSVTLSIRADSPVPSITDIGHPAPNVKRIRCSASGGFPEPRLAWMEDGEELNAVNTTVDQDLDTELYSVSSELDFNVTNNHSIVCLIKYGELSVSQIFPWSKPKQEPPIDQLPFWVIIPVSGALVLTAVVLYCLACRHVARWKRTRRNEETVGTERLSPIYLGSAQSSG
notes: also called R1clone 84; Clone 84

- binding result [8]: binds
- Binding Score [1]: 1
B14: Round 1 CD28BP-118 (ligand)
chain: B13 chain with S109F, G134D
notes: also called R1clone 118; Clone 118
